Measurements as given in patent publication US20230076357A1.

Assays:
Assay in all cases: cell-based or functional assay
[1] = molecular target: constitutively active SAMHD1 (SAMHD1 (T592A)) (UniProt Q9Y3Z3)
[2] = molecular target: nCas9-LZ1 (NLS-SpCas9(H840A)-NLS-EE12RR345L(leucine zipper)) (Streptococcus pyogenes serotype M1) (UniProt Q99ZW2)
[3] = molecular target: nCas9(1-1172)-Npu N intein (Streptococcus pyogenes serotype M1) (UniProt Q99ZW2)

Sequence of constitutively active SAMHD1 (SAMHD1 (T592A)) (Q9Y3Z3 whole entry T592A): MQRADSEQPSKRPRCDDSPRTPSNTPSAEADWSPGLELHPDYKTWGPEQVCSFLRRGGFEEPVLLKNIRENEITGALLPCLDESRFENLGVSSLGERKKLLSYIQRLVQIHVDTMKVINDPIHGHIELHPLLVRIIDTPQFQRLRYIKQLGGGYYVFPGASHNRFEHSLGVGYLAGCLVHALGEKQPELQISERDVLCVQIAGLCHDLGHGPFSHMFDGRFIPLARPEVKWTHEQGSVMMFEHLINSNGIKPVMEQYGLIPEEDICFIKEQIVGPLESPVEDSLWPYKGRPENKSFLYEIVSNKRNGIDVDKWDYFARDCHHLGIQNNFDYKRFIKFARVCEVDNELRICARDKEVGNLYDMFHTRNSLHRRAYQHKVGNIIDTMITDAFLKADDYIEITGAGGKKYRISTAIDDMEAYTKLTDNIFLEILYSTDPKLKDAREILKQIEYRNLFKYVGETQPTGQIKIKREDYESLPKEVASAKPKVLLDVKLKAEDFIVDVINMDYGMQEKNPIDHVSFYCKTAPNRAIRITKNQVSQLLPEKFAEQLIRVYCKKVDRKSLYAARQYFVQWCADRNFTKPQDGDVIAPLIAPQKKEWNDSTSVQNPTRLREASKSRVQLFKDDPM

Substance “VPX^RH2-1 (variant of VPX from HIV-2 clinical isolate RH2-1) (from UniProt P20881 1-112)” has an editing efficiency with RW2I, edit 2 nt from the nick, SAMHD1 (T592A) coexpressed [1] of 64%.

“LZ2-mlvRT (RR12EE345L(leucine zipper)-mlvRTv(D200N, L603W, T306K, W313F, T330P)-NLS) (enzyme)” was tested, and the editing efficiency (BFP to GFP conversion in HEK293T-BFP cells) [2] was 38%.

“Npu C intein-nCas9(1173-1368 with S1173C)-mlvRT5M (enzyme)” gave an editing efficiency (% GFP+) [3] of 29%.

For “Vpx peptide (Hiv2-rod Vpx) (from UniProt P06939 1-112)”, the editing efficiency relative to that without SAMHD1^p-, edit 65 nt from the nick [1] was 78%.
